Assay results from US20170002079A1 (Amgen, published 2017).

T1: human ST2 on primary human cells (human, UniProt Q01638 19-556)
T1 sequence: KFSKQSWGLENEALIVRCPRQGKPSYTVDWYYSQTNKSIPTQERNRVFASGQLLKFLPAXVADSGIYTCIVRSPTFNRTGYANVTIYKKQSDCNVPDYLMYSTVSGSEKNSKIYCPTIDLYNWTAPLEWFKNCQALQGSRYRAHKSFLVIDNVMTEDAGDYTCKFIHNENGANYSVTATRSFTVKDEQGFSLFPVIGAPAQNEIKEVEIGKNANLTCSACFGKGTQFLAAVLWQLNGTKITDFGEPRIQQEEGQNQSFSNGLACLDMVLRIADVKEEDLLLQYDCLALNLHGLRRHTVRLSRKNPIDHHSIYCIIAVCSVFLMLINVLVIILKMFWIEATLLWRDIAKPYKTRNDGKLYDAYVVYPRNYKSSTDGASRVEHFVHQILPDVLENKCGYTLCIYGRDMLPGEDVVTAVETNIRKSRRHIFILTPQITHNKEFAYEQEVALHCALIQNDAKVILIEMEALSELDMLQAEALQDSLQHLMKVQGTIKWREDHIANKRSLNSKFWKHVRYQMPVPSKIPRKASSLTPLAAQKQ

T2: cynomolgus monkey ST2 on cynomolgus monkey CD4+ T cells (cynomolgus monkey, UniProt Q01638 19-556 (human entry))
T2 chain: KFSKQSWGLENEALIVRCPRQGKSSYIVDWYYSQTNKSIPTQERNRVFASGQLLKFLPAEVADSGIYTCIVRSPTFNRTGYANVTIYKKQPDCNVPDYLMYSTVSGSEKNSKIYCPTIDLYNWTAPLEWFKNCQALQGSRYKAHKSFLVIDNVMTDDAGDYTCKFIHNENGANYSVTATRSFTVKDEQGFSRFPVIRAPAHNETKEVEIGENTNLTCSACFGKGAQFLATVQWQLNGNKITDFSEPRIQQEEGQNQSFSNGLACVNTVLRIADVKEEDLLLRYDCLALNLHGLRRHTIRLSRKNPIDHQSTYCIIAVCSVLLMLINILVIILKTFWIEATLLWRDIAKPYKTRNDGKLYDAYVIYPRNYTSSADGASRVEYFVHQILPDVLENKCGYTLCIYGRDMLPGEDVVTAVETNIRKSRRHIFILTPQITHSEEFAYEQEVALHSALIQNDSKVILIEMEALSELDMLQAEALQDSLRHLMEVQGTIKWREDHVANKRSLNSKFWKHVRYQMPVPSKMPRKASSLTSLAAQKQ


How the values were obtained:
[1] = target: T1, human ST2 on primary human cells; experiment: cell-based or functional assay
[2] = target: ST2 (Example 4, pH-sensitive binding); experiment: SPR Biacore 4000; kd at pH 5.5 against kd at pH 7.4
Protocol: (§1) The association (5 min) rates at pH 7.4 and dissociation (10 min) rates at pH 5.5 and 7.4 were monitored at a flow rate of 30 uL/min. The reference subtracted data was fit to a 1:1 model in Scrubber.

[3] = target: ST2 (Example 4, pH-sensitive binding); experiment: SPR Biacore 4000; association at pH 7.4, dissociation at pH 5.5; estimated kd
Protocol: as §1

[4] = target: ST2 (Example 4, pH-sensitive binding); experiment: SPR Biacore 4000; association at pH 7.4, dissociation at pH 7.4; estimated kd
Protocol: as §1

[5] = target: T1, human ST2 on primary human cells; experiment: cell-based or functional assay; remark: listed apart in the source
[6] = target: T2, cynomolgus monkey ST2 on cynomolgus …; experiment: cell-based or functional assay
[7] = target: T1, human ST2 on primary human cells; experiment: cell-based or functional assay; remark: listed apart in the source

Binder | IC50 (read off the curve); % inhibition of IL-5 production by human CD4+ T cells stimulated with human IL-33 + IL-2 [1] [mg/L] | pH 7.4/pH 5.5 kd fold change [2] [fold] | koff [3] [s⁻¹] | koff [4] [s⁻¹] | IC50 (nM), inhibition of human IL-33-induced IL-5 production from human CD4+ T cells [5] [nM] | IC-50, cynomolgus monkey CD4+ T cell IFNγ release assay (IL-33, IL-2 and IL-12p70 stimulation) [6] [pM] | IC-50, human eosinophil IL-8 release assay (IL-33 and IL-3 stimulation) [7] [pM]
Ab2 (antibody, human IgG2, kappa, V domains shown, Fully human anti-ST2 antibody (XenoMouse); Full chains are the exemplary Ab2 chains) VH: EVQLVQSGAEVKKPGESLKISCKGSGYSFTNYWIGWVRQMPGKGLEWMGIIYPGNSDTRFSPSFQGQVTISADKSITTAYLQWSSLKASDTAMYYCARHGTSSDYYGLDVWGQGTTVTVSS VL: not shown | ~0.03 | 8 | 0.000238 | 2.98e-05 |  |  | 
Ab4 (antibody, human IgG2, kappa, V domains shown, Fully human anti-ST2 antibody) VH: QVQLVQSGAEVKKPGASVKVSCEVSGFILTELSVNWVRQAPGKGLEWMGGFDPEDGKTIYAQKFQGRVTLTEDTSTDTAYMELSSLRSEDTAVYYCATWWDFHFDFWGQGTLVTVSS VL: DFVMTQTPLSLSVTPGQPASISCKSSQSLLHSNGKTYLYWFLQKPGQPPQLLIYEVSNRFSGVPDRFSGSGSGTDFTLKISRVEAEDVGVYYCMQSIQLPLTFGGGTKVEIKR | ~0.08 | 16.9 | 0.0107 | 0.000632 |  |  | 
Ab1 (antibody, human IgG2, kappa, V domains shown, Fully human anti-ST2 antibody (XenoMouse); Full chains are the exemplary Ab1 chains) VH: QVQLVQSGAEVKKPGASVKVSCKVSGYTLTELSIHWVRQAPGKGLEWMGGFGPEDGETIYAQKFQGRVTMTEDTSTDTAYMELSSLRSEDTAVYYCTTEDSSGLFDYWGQGTLVTVSS VL: not shown |  | 88.1 | 0.0118 | 0.000134 |  |  | 
Ab6 (antibody, human IgG2, kappa, V domains shown) VH: EVQLVESGGGLVQPGGSLRLSCAASGFTFSTYDMHWVRQTTGKGLEWVSAIDLAGDTYYPGSVKGRFTISREDAKNSLYLQMNSLRAGDTAVYYCARGGDGYNYDYYGIDVWGQGTTVTVSS VL: DIVMTQSPLSLPVTPGEPASISCRSSQSLLHSDGYHYLDWYLQKPGQSPQLLIYLGSNRASGVPDRFSGSGSGTDFTLNISRVEAEDVGVYYCMQALQTLTFGGGTKVEIKR | ~0.09 |  |  |  |  |  | 
Ab3 (antibody, human IgG2, kappa, V domains shown, Fully human anti-ST2 antibody) VH: EVQLVESGGGLVQPGGSLRLSCAASGFTFSTYDMHWIRQAPGKNLEWVSAIDLAGDTYYPGSVKGRFTISREDAKNSLYLQMNSLRAGDTAVYYCARGGDGYNYDYYGIDVWGQGTTVTVSS VL: DIVMTQSPLSLPVTPGEPASISCRSSQSLLHSDGYHYLDWYLQKPGQSPQLLIYLGSNRASGVPDRFTGSGSGTDFTLKISRVEAEDVGVYYCMQALQILTFGGGTKVEIKR | ~0.3 | 2.9 | 7.91e-05 | 2.73e-05 |  |  | 

Further lines, results first:

IC50 (read off the curve); % inhibition of IL-5 production by human CD4+ T cells stimulated with human IL-33 + IL-2 [1] [mg/L] | pH 7.4/pH 5.5 kd fold change [2] [fold] | koff [3] [s⁻¹] | koff [4] [s⁻¹] | IC50 (nM), inhibition of human IL-33-induced IL-5 production from human CD4+ T cells [5] [nM] | IC-50, cynomolgus monkey CD4+ T cell IFNγ release assay (IL-33, IL-2 and IL-12p70 stimulation) [6] [pM] | IC-50, human eosinophil IL-8 release assay (IL-33 and IL-3 stimulation) [7] [pM] | Binder
~0.02 |  |  |  |  |  |  | Ab7 (antibody, human IgG2, kappa, V domains shown) VH: EVQLVESGGGLVQPGGSLRLSCAASGFTFSTYDMHWVRQTTGKGLEWVSAIDLAGDTYYPGSVKGRFTISREDAKNSLYLQMNSLRAGDTAVYYCARGGDGYNYDYYGIDVWGQGTTVTVSS VL: DIVMTQSPLSLPVTPGEPASISCRSSQSLLHSDGYHYLDWYLQKPGQSPQLLIYLGSNRASGVPDRFSGSGSGTDFTLNISRVEAEDVGVYYCMQALQTLTFGGGTKVEIKR
~0.09 |  |  |  |  |  |  | Ab5 (antibody, human IgG2, kappa, V domains shown) VH: EVQLVESGGGWVQPGGSLRLSCAASGFTFSSYDMYWVRQATGKGLEWVSGIDTVGDTYYPDSVKGRFTISRENAKNSVYLQMNTLRAGDTAVYYCVRGIYGDFYYYGLDVWGHGTTVTVSS VL: DIVMTQSPLSLPVTPGEPASISCRSSQSLLYSDGNNYLDWYLQKPGQSPHLLIYLGSNRASGVPDRFSGSGSGTDFTLKISRVEADDVGVYYCMQALQTLTFGGGTKVEIKR
~0.9 |  |  |  | 6.9 | 158 | 3120 | Ab8 (antibody, human IgG2, kappa, V domains shown) VH: EVQLVESGGGLVQPGGSLRLSCAASGFTFSSYDMYWVRQATGKGLEWVSAIDTVGDTYYPGSVKGRFTISRENAKNSLYLQMNSLRVGDTAVYYCARGGDYDYSYYGMDVWGQGTTVTVSS VL: not shown
